The nature of series [1]: Western blot of concentrated culture supernatant vs lysate. The settings on record: glycan lost; control: wild type. Background: A western blot detects proteins with antibodies after separation by electrophoresis.
Series [2] in a line: Western blot of 293T cell lysates. The settings on record: glycan lost; control: wild type.

B1: Procollagen C-proteinase enhancer protein (PCOLCE): N29Q (protein)
parent chain: MLPAATASLLGPLLTACALLPFAQGQTPNYTRPVFLCGGDVKGESGYVASEGFPNLYPPNKECIWTITVPEGQTVSLSFRVFDLELHPACRYDALEVFAGSGTSGQRLGRFCGTFRPAPLVAPGNQVTLRMTTDEGTGGRGFLLWYSGRATSGTEHQFCGGRLEKAQGTLTTPNWPESDYPPGISCSWHIIAPPDQVIALTFEKFDLEPDTYCRYDSVSVFNGAVSDDSRRLGKFCGDAVPGSISSEGNELLVQFVSDLSVTADGFSASYKTLPRGTAKEGQGPGPKRGTEPKVKLPPKSQPPEKTEESPSAPDAPTCPKQCRRTGTLQSNFCASSLVVTATVKSMVREPGEGLAVTVSLIGAYKTGGLDLPSPPTGASLKFYVPCKQCPPMKKGVSYLLMGQVEENRGPVLPPESFVVLHRPNQDQILTNLSKRKCPSQPVRAAASQD
In the case of B1, the expression_or_secretion entry in series [1] and in series [2] was “decreases” throughout.
